Results as given in the supplement of paper PMC9233669.
This sample holds only a part of the variants without activity.

Columns and labels:
biotinyl-Phe-oxazolone = experiment: self-aminoacylation, catalytic enhancement (BFO) (fold over background); higher = more active; k-Seq, kA / k0A0; sequences stand for … in GGGAAUGGAUCCACAUCUACGAAUUC…UUCACUGCAGACUUGACGAAGCUG
How it was run: (§1)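 Mutagenized RNA pools with a 21-nt variable region (0.43 μM) were reacted with each biotinyl-aminoacyl-oxazolone at 2–1250 μM for 90 minutes at room temperature, in 50 μL HEPES/NaCl/KCl/MgCl2/CaCl2 buffer containing 5% acetonitrile at pH 6.9–7.0. RNA captured on streptavidin was quantified by triplicate qPCR and by Illumina sequencing. The fraction reacted for each sequence was fit to a pseudo-first-order model with bootstrapping, and catalytic enhancement is the median kA divided by the uncatalyzed rate, taken as the low-activity peak of a bimodal Gaussian fit.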

biotinyl-Ile-oxazolone = experiment: self-aminoacylation, catalytic enhancement (BIO) (fold over background); higher = more active; k-Seq, kA / k0A0; sequences stand for … in GGGAAUGGAUCCACAUCUACGAAUUC…UUCACUGCAGACUUGACGAAGCUG
How it was run: as §1

biotinyl-Met-oxazolone = experiment: self-aminoacylation, catalytic enhancement (BMO) (fold over background); higher = more active; k-Seq, kA / k0A0; sequences stand for … in GGGAAUGGAUCCACAUCUACGAAUUC…UUCACUGCAGACUUGACGAAGCUG
How it was run: as §1

biotinyl-Val-oxazolone = experiment: self-aminoacylation, catalytic enhancement (BVO) (fold over background); higher = more active; k-Seq, kA / k0A0; sequences stand for … in GGGAAUGGAUCCACAUCUACGAAUUC…UUCACUGCAGACUUGACGAAGCUG
How it was run: as §1

biotinyl-Leu-oxazolone = experiment: self-aminoacylation, catalytic enhancement (BLO) (fold over background); higher = more active; k-Seq, kA / k0A0; sequences stand for … in GGGAAUGGAUCCACAUCUACGAAUUC…UUCACUGCAGACUUGACGAAGCUG
How it was run: as §1

biotinyl-Trp-oxazolone = experiment: self-aminoacylation, catalytic enhancement (BWO) (fold over background); higher = more active; k-Seq, kA / k0A0; sequences stand for … in GGGAAUGGAUCCACAUCUACGAAUUC…UUCACUGCAGACUUGACGAAGCUG
How it was run: as §1

Row | Sequence | self-aminoacylation (biotinyl-Phe-oxazolone) | self-aminoacylation (biotinyl-Ile-oxazolone) | self-aminoacylation (biotinyl-Met-oxazolone) | self-aminoacylation (biotinyl-Val-oxazolone) | self-aminoacylation (biotinyl-Leu-oxazolone) | self-aminoacylation (biotinyl-Trp-oxazolone)
1 | AUUACCCUGGUCUUCCAGUGA [Fam2.1 aminoacylation ribozyme variant] | 31.7 | 3.79 | 5.48 | 3.51 | 5.94 | 6.46
2 | AUUACCCUGGUCUUCGAGUCA [Fam2.1 aminoacylation ribozyme variant] | 0.638 | 0.953 | 0.844 | 0.873 | 0.903 | 0.688
3 | AUUACCCUGGUCUUCGAGUGG [Fam2.1 aminoacylation ribozyme variant] | 4.91 | 0.992 | 1.34 | 1.07 | 1.69 | 0.855
4 | AUUACCCUGGUCUUCGCGUGA [Fam2.1 aminoacylation ribozyme variant] | 55.2 | 5.89 | 9.58 | 6.16 | 9.77 | 11.5
5 | AUUACCCUGGUCUUCGUGUGA [Fam2.1 aminoacylation ribozyme variant] | 7.45 | 1.05 | 1.46 | 1.02 | 1.45 | 1.93
6 | AUUACCCUGGUGAUCGCGUGA [Fam2.1 aminoacylation ribozyme variant] | 44.2 | 3.45 | 4.66 | 4.19 | 4.38 | 6.27
7 | AUUACCCUGGUGCUCGAGUGA [Fam2.1 aminoacylation ribozyme variant] | 25 | 2.14 | 3.93 | 2.38 | 4.67 | 5.2
8 | AUUACCCUGGUGUUCGAGUGA [Fam2.1 aminoacylation ribozyme variant] | 45.5 | 2.73 | 5.65 | 3.21 | 6.71 | 7.61
9 | AUUACCCUGGUUAUCGAGUAA [Fam2.1 aminoacylation ribozyme variant] | 1.44 | 1.31 | 1.44 | 1.24 | 1.32 | 1.89
10 | AUUACCCUGGUUAUCGAGUGA [Fam2.1 aminoacylation ribozyme variant] | 25.2 | 3.83 | 8.65 | 4.27 | 8.64 | 10.3
11 | AUUACCCUGGUUAUCGGGUGA [Fam2.1 aminoacylation ribozyme variant] | 94.3 | 5.12 | 12.8 | 6.66 | 13.6 | 14.8
12 | AUUACCCUGUUAAUCGAGUGA [Fam2.1 aminoacylation ribozyme variant] | 54.5 | 4.91 | 9.91 | 5.36 | 9.68 | 13.4
13 | AUUACCCUGUUCACCGAGUGA [Fam2.1 aminoacylation ribozyme variant] | 77.2 | 4.79 | 11 | 5 | 11.6 | 12.7
14 | AUUACCCUGUUCAUCCAGUGA [Fam2.1 aminoacylation ribozyme variant] | 23 | 3.76 | 5.95 | 3.52 | 5.85 | 8.43
15 | AUUACCCUGUUCAUCGAGUGA [Fam2.1 aminoacylation ribozyme variant] | 16.6 | 2.97 | 5.57 | 3.22 | 5.44 | 7.34
16 | AUUACCCUGUUCAUCGGGUGA [Fam2.1 aminoacylation ribozyme variant] | 64.2 | 4.92 | 9.44 | 5.19 | 9.74 | 12
17 | AUUACCCUGUUCGUCGAGUGA [Fam2.1 aminoacylation ribozyme variant] | 0.834 | 1.15 | 0.885 | 1.2 | 0.865 | 1.44
18 | AUUACCCUGUUCUUCGAGUGA [Fam2.1 aminoacylation ribozyme variant] | 23.3 | 3.05 | 5.6 | 3.41 | 5.58 | 7.83
19 | AUUACCCUUAUCAUCGAGUGA [Fam2.1 aminoacylation ribozyme variant] | 60.8 | 5.68 | 14.1 | 6.51 | 13.2 | 16.7
20 | AUUACCCUUGUCAUCAAGUGA [Fam2.1 aminoacylation ribozyme variant] | 12.5 | 2.2 | 4.86 | 2.77 | 4.43 | 6.3
21 | AUUACCCUUGUCAUCUAGUGA [Fam2.1 aminoacylation ribozyme variant] | 26.5 | 3.76 | 7.09 | 3.81 | 7.22 | 8.68
22 | AUUACCGAGGUCAUCGAGUGA [Fam2.1 aminoacylation ribozyme variant] | 38.1 | 3.99 | 6.93 | 4.64 | 8.4 | 10.8

Row | Sequence | self-aminoacylation (biotinyl-Phe-oxazolone) | self-aminoacylation (biotinyl-Ile-oxazolone) | self-aminoacylation (biotinyl-Met-oxazolone) | self-aminoacylation (biotinyl-Val-oxazolone) | self-aminoacylation (biotinyl-Leu-oxazolone) | self-aminoacylation (biotinyl-Trp-oxazolone)
23 | AUUACCGCGGUCAUCGAGUGA [Fam2.1 aminoacylation ribozyme variant] | 36.1 | 3.36 | 5.86 | 3.11 | 6.47 | 7.16
24 | AUUACCGUCGUCAUCGAGUGA [Fam2.1 aminoacylation ribozyme variant] | 8.91 | 2.36 | 3.23 | 2.3 | 3.42 | 3.88
25 | AUUACCGUGAUCAUCGAGUGA [Fam2.1 aminoacylation ribozyme variant] | 44.9 | 4.18 | 9.07 | 4.34 | 8.78 | 10.5
26 | AUUACCGUGGACAUCGAGUGA [Fam2.1 aminoacylation ribozyme variant] | 3.62 | 2.29 | 3.47 | 2.68 | 3.92 | 5.62
27 | AUUACCGUGGCCAUCGAGUGA [Fam2.1 aminoacylation ribozyme variant] | 32.8 | 3.2 | 4.71 | 3.89 | 5.84 | 8.11
28 | AUUACCGUGGUAAUCGAGUGA [Fam2.1 aminoacylation ribozyme variant] | 43.2 | 3.63 | 8.54 | 4.18 | 9.2 | 9.95
29 | AUUACCGUGGUCAACGAGUGA [Fam2.1 aminoacylation ribozyme variant] | 36.7 | 3.61 | 6.41 | 4.21 | 7.25 | 9.2
30 | AUUACCGUGGUCAUCGAGUGG [Fam2.1 aminoacylation ribozyme variant] | 7.04 | 1.27 | 1.85 | 1.33 | 1.81 | 1.72
31 | AUUACCGUGGUCAUCGAGUGU [Fam2.1 aminoacylation ribozyme variant] | 12.9 | 1.89 | 3.17 | 2.46 | 3.51 | 4.27
32 | AUUACCGUGGUCCUCGAGUGA [Fam2.1 aminoacylation ribozyme variant] | 29.2 | 2.57 | 4.11 | 3.69 | 4.19 | 4.82
33 | AUUACCGUGGUUAUCGAGUGA [Fam2.1 aminoacylation ribozyme variant] | 59.4 | 4.22 | 10.7 | 5.1 | 10.4 | 11.4
34 | AUUACCUUGGUCAUCGAGUCA [Fam2.1 aminoacylation ribozyme variant] | 0.473 | 0.854 | 0.691 | 0.81 | 0.786 | 0.599
35 | AUUACCUUGGUCAUCGAGUGA [Fam2.1 aminoacylation ribozyme variant] | 7.72 | 3.7 | 6.66 | 3.88 | 6.89 | 8.16
36 | AUUACCUUGGUCAUCGAGUUA [Fam2.1 aminoacylation ribozyme variant] | 0.913 | 1.18 | 1.19 | 1.03 | 0.814 | 0.524
37 | AUUACGAUGGUCAUCGAGUGA [Fam2.1 aminoacylation ribozyme variant] | 12.3 | 2.99 | 3.43 | 3.17 | 4.54 | 4.79
38 | AUUACGCUGGUAAUCGAGUGA [Fam2.1 aminoacylation ribozyme variant] | 18.7 | 2.84 | 5.48 | 2.77 | 5.76 | 7.02
39 | AUUACGCUGGUCAUCGAGAGA [Fam2.1 aminoacylation ribozyme variant] | 1.36 | 1.21 | 1.44 | 1.73 | 1.42 | 1.59
40 | AUUACGCUGGUCAUCGAGUGA [Fam2.1 aminoacylation ribozyme variant] | 16.1 | 3.16 | 4.57 | 3.23 | 4.69 | 5.76
41 | AUUACGCUGGUCAUCGUGUGA [Fam2.1 aminoacylation ribozyme variant] | 15.4 | 1.62 | 2.48 | 1.6 | 2.59 | 3
42 | AUUACGCUGGUCAUGGAGUGA [Fam2.1 aminoacylation ribozyme variant] | 5.28 | 2.29 | 2.67 | 2.39 | 2.76 | 3.44
43 | AUUACGCUGGUCAUUGAGUGA [Fam2.1 aminoacylation ribozyme variant] | 21.2 | 3.29 | 5.32 | 3 | 5.87 | 6.92
